Molecular target: calmodulin (unlabeled, as used in the gel mobility-shift and kinase assays of Example 2) (UniProt P04353)

Substance: lily CCaMK truncation mutant 1-356
- Ca2+/calmodulin-dependent kinase activity (histone IIAS phosphorylation): retained Ca2+/calmodulin-dependent kinase activity at a substantially reduced level
